Experimental data: patent publication US20190060324A1, “POLYNUCLEOTIDE-POLY(DIOL) CONJUGATES, PROCESS OF PREPARATION AND USES THEREOF” (THE ROYAL INSTITUTION FOR THE ADVANCEMENT OF …, priority 2014, published 2019)

Assays:
[1] = Dynamic light scattering of DNA-conjugate micelles (hydrodynamic radius, self-assembly); type: physicochemical; conditions: 25° C.; for self-assembly / scattering by DLS: 10 μM in magnesium containing (TAMg) buffer; for Single-stranded Rh (hydrodynamic radius by DLS): 10 μM in TAMg buffer; for Single-stranded Rh (hydrodynamic radius by DLS) / Double-stranded Rh (hydrodynamic radius by DLS): mean of at least triplicate ± SD
Procedure: The conjugates described herein can be further characterized with regard to their self-assembly behavior. To probe the self-assembly in solution, dynamic light scattering (DLS) was used to determine the presence, and hydrodynamic radius, of micellar aggregates.
Dynamic Light Scattering (DLS) experiments were carried out using a DynaPro™ Instrument from Wyatt Technology. A cumulants fit model was used to confirm the presence and determine the size of a monomodal population of micellar aggregates. Sterile water and TAMg buffer were filtered using a 0.45 μm nylon syringe filter before use for DLS sample preparation. All measurements were carried out at 25° C.
This size correlates with DNA-based spherical micelles and is consistent with the tight packing of the HE chains in a hydrophobic core with a charged corona made up of DNA.
To investigate the effect of block pattern on the amphiphilic self-assembly in solution, DLS measurements were carried out for the HE/HEG series. Samples were annealed in TAMg buffer at 10 μM, and measured at 25° C. […] Furthermore, the effect of the positioning of the blocks with respect to the oligonucleotide portion also appears to be a major factor in the self-assembly: the terminal HE6 results in micellization, whereas a central HE6 block prevents aggregation.

[2] = tested on: complement strand (Acomp); assay: Thermal denaturation of duplexes with complement strand by UV absorption; native PAGE; type: physicochemical; conditions: between DNA and HE12-DNA, duplex with Acomp 2.5 μM in TAMg
Procedure: The hybridization of the DNA amphiphiles to their complement strands was confirmed by measurement of the thermal denaturation of the duplexes by UV absorption. For each experiment equimolar amounts of DNA amphiphile and complement strand (Acomp, see Table 1) were combined in TAMg buffer to give a final volume of 150 μL with a duplex concentration of 2.5 μM. Samples were thermally annealed (95 to 4° C., 4 hours) before transfer to a quartz cuvette. Absorbance at 260 nm was monitored over the appropriate temperature range. Typical sigmoidal melting curves were obtained for the hybridization of the complementary strand Acomp to DNA control, discrete (HE-HEG)6-DNA and HE12-DNA micelles. […] Native Polyacrylamide Gel Electrophoresis (PAGE) was carried out at room temperature for 2 hours at a constant voltage of 250V. Sample loading was 0.01 OD260 DNA per lane. Single-stranded samples were annealed (95 to 4° C., 4 hours) prior to loading on the gel to promote uniform assembly. Double-stranded samples were similarly annealed (with Acomp, see Table 1) to provide 25 μL of 10 μM duplex in 1×TAMg. The DNA bands were visualized by incubation with GelRedTM. Thermal denaturation and gel electrophoresis concluded that all of the HEx-DNA molecules retained their ability to hybridize to a complementary DNA strand, highlighting the orthogonal nature of these differing modes of intermolecular self-assembly. […]

[3] = BKM120 loading of HE12-DNA micelles by RP-HPLC and UV-Vis; type: physicochemical; conditions: HPLC peak areas, standard curves
Procedure: BKM120 was prepared as a 10 mM working solution in chloroform. Loading of the structures was achieved by adding 20 μL of BKM120 to a glass vial, followed by solvent evaporation in open air to achieve a thin drug film. HE12-DNA micelles were pre-assembled in 1×TAMg (100 μL at […]) and subsequently added to the drug film. The final solution was 100 μL with excess BKM120 (2 mM). The mixture was vortexed heavily to allow re-suspension of the drug molecules, and was incubated overnight at room temperature. Alternatively, drug loading could also be obtained by a different method. […]
RP-HPLC and UV-Vis spectroscopy were used to determine the amount of BKM120 loaded in the DNA micelles, For HPLC, 60 μL of the purified supernatant was injected into a Hamilton PRP-1 5 μm 100 Å 2.1×150 mm column. […] The products were also detected using a drug-only channel at 320 nm (BKM 120 maximum absorption peak).
For UV-Vis spectroscopy experiments, 20 μL of the purified supernatant was mixed with 80 μL of DMSO, and the absorbance (200 nm-500 nm) was measured. The presence of BKM120 was monitored by the absorbance at 320 nm using a Biotek Synergy HT well-plate spectrometer. […]
The amount of incorporated BKM 120 was calculated by measuring HPLC peak areas of BKM 120 and DNA. […]

[4] = tested on: HeLa cells (human cervical cancer); assay: MTS cytotoxicity assay; type: cell-based; conditions: quadruplicate, read-out: inhibitory concentration (IC50), MTS assay
Procedure: The cytotoxicity of micelles was assessed using the CellTiter96 kit from Promega according to the manufacturer's instructions. Briefly, HeLa cells (human cervical cancer) were seeded at a density of 10000 cells per well in a 96-well plate in DMEM media (Invitrogen) supplemented with 10% FBS and AB/AM. […] Cells were incubated for 24, 48, and 72 h in 5% CO2 at 37° C. After the incubation period, the MTS reagent was added to each well and further incubated for 2 h in 5% CO2 at 37° C. Subsequently, 96-well plates were allowed to equilibrate at room temperature and the absorbance was read at 490 nm using a BioTek Epoch micro-plate reader. All quantifications were done using GraphPad Prism 5 software.

[5] = tested on: primary B-CLL lymphocytes; assay: Cleaved caspase-3 apoptosis assay; type: cell-based, human; conditions: primary patient CLL cells, 24 and 48 h
Procedure: Primary B-CLL lymphocytes were maintained in RPMI complemented with 10% fetal bovine serum (FBS). BMS2 stromal cell line were maintained in Dulbecco's modified eagle medium (DMEM) supplemented with 10% FBS.BMS2 cells were plate at 70×10^4 cells/ml in 24 well plates before coculture with primary B-CLL lymphocytes and incubate at 37° C., 5% C02.
For apoptosis assays, 3×10^6 B-CLL lymphocytes were plated in the presence or absence of stromal cell (BMS2) and incubate 1 h at 37° C., 5% CO2. Cells were then treated with vehicle, micelle, BKM120, and micelle encapsulated BKM120 for 24 and 48 h.
Cells were harvested, washed with PBS then fixed 10 min with 1% paraformaldehyde. After washing, cells were permeabilized and nonspecific sites blocked in PBS containing 3% FBS and 0.01% triton X100. Cells were then incubated 1 h with an anti-caspase-3 FITC conjugated antibody then analyzed with a FACSCalibur flow cytometer. (See FIG. 16).

[6] = Fluorescence of encapsulated Nile Red; type: physicochemical; conditions: conjugate 10 μM in TAMg, excitation 535 nm
Procedure: DNA-conjugates (10 μM) in TAMg buffer (60 μL) were thermally annealed (95 to 4° C., 4 hours). The samples were transferred to glass vials and 1.5 μL of Nile Red solution ([…], acetone) was added, to give a final Nile Red concentration of 2.5 μM. The samples were vortexed briefly, sealed and incubated overnight at room temperature in the absence of light. Fluorescence spectra were recorded at room temperature in a 50 μL quartz cuvette using an excitation wavelength of 535 nm, and monitoring emission between 560 and 750 nm, with excitation and emission slit widths both set at 10 nm.
The sequence-specific self-assembly was also assessed using encapsulation of Nile Red (FIG. 5). In this case a small increase in fluorescence was seen as the block size increased from one to three HE units, consistent with a degree of intramolecular collapse of adjacent HE units, generating progressively larger hydrophobic domains as the block size increases, akin to beads on a string. […] A small, but repeatedly measurable, […] of the maximum emission from the bola-amphiphile (640 nm) with respect to the linear amphiphile (645 nm) was also observed, which is indicative of Nile Red in a more polar environment P. Greenspan, S. D. Fowler, J. Lipid Res. 1985, 26, 781-789). […]

Compound | self-assembly / scattering by DLS [1] | Single-stranded Rh (hydrodynamic radius by DLS) [1] [nm] | Double-stranded Rh (hydrodynamic radius by DLS) [1] [nm] | also measured
(HE-HEG)6-DNA: DHDHDHDHDHDHTTTTTCAGTTGACCATATA; D dodecane-diol, H hexaethyloxy glycol residues (dodecane-diol and hexaethylene glycol units conjugated, chemistry not fully specified) | did not exhibit self-assembly |  |  | 
(HE3-HEG3)2-DNA: DDDHHHDDDHHHTTTTTCAGTTGACCATATA; D dodecane-diol, H hexaethyloxy glycol residues (dodecane-diol and hexaethylene glycol units conjugated, chemistry not fully specified) | did not exhibit self-assembly |  |  | 
HE12-DNA: DDDDDDDDDDDDTTTTTCAGTTGACCATATA; D = residue from DMT-dodecane-diol amidite (dodecane-diol (HE) units conjugated, chemistry not fully specified) |  | 11.3±0.1 | 11.3 ± 0.1 | Single-stranded Rh (hydrodynamic radius by DLS) ([1]; listed as HE12): 11.3 ± 0.7 nm; change in melting temperature [2]: 3 °C; BKM120 molecules incorporated per HE12-DNA conjugate unit [3]: 8
HE6-DNA: DDDDDDTTTTTCAGTTGACCATATA; D = residue from DMT-dodecane-diol amidite (dodecane-diol (HE) units conjugated, chemistry not fully specified) | strong scattering | 6.5±0.4 | 5.6 ± 0.1 | Single-stranded Rh (hydrodynamic radius by DLS) ([1]; listed as HE6): 6.5 ± 0.4 nm
Nc1cc(C(F)(F)F)c(-c2cc(N3CCOCC3)nc(N3CCOCC3)n2)cn1 [BKM120] |  |  |  | IC50 [4]: 2000 nM; amount of caspase (cleaved caspase-3) [5]: same amount
HE6-HEG6-DNA: DDDDDDHHHHHHTTTTTCAGTTGACCATATA; D dodecane-diol, H hexaethyloxy glycol residues (dodecane-diol and hexaethylene glycol units conjugated, chemistry not fully specified) | strong scattering | 9.7±0.9 | 10.0 ± 0.2 | Single-stranded Rh (hydrodynamic radius by DLS) ([1]; listed as HE6-HEG6): 9.7 ± 0.1 nm; maximum emission of encapsulated Nile Red [6]: 645 nm
(HE2-HEG2)3-DNA: DDHHDDHHDDHHTTTTTCAGTTGACCATATA; D dodecane-diol, H hexaethyloxy glycol residues (dodecane-diol and hexaethylene glycol units conjugated, chemistry not fully specified) | did not exhibit self-assembly |  |  | 
HEG6-HE6-DNA: HHHHHHDDDDDDTTTTTCAGTTGACCATATA; D dodecane-diol, H hexaethyloxy glycol residues (dodecane-diol and hexaethylene glycol units conjugated, chemistry not fully specified) |  |  |  | maximum emission of encapsulated Nile Red [6]: 640 nm
